± gives the standard deviation of the averaged measurements.
Key:
MCF7 = experiment: percentage of EdU-negative (G0-arrested) nuclei per well, 72 h; higher = more G0 arrest; settings: reference: sequence is the full UniProt precursor, the tested protein was the secreted form or ectodomain
hTERT-HMEC = experiment: as above; settings: reference: sequence is the full UniProt precursor, the tested protein was the secreted form or ectodomain
[1] = protein concentration 0.0225 µM
[2] = protein concentration 0.0354286 µM
[3] = protein concentration 0.354286 µM
[4] = protein concentration 0.02179 µM
[5] = protein concentration 0.2179 µM
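Further: secreted proteins added to cultured cells, EdU pulse at the end, nuclei found by Hoechst imaging, EdU status from nuclear versus surrounding ring intensity ratio, PBS as neutral control.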

Sequence: MDFGLALLLAGLLGLLLGQSLQVKPLQVEPPEPVVAVALGASRQLTCRLACADRGASVQWRGLDTSLGAVQSDTGRSVLTVRNASLSAAGTRVCVGSCGGRTFQHTVQLLVYAFPDQLTVSPAALVPGDPEVACTAHKVTPVDPNALSFSLLVGGQELEGAQALGPEVQEEEEEPQGDEDVLFRVTERWRLPPLGTPVPPALYCQATMRLPGLELSHRQAIPVLHSPTSPEPPDTTSPESPDTTSPESPDTTSQEPPDTTSPEPPDKTSPEPAPQQGSTHTPRSPGSTRTRRPEISQAGPTQGEVIPTGSSKPAGDQLPAALWTSSAVLGLLLLALPTYHLWKRCRHLAEDDTHPPASLRLLPQVSAWAGLRGTGQVGISPS
- percentage of EdU-negative (MCF7; [1]): 27.1 ± 4.2%
- percentage of EdU-negative (MCF7; protein concentration 0.225 µM): 26.3 ± 1.4%
- percentage of EdU-negative (hTERT-HMEC; [1]): 5.3 ± 0.25%
- percentage of EdU-negative (hTERT-HMEC; protein concentration 0.225 µM): 5.85 ± 0.98%

Sequence: MDFPCLWLGLLLPLVAALDFNYHRQEGMEAFLKTVAQNYSSVTHLHSIGKSVKGRNLWVLVVGRFPKEHRIGIPEFKYVANMHGDETVGRELLLHLIDYLVTSDGKDPEITNLINSTRIHIMPSMNPDGFEAVKKPDCYYSIGRENYNQYDLNRNFPDAFEYNNVSRQPETVAVMKWLKTETFVLSANLHGGALVASYPFDNGVQATGALYSRSLTPDDDVFQYLAHTYASRNPNMKKGDECKNKMNFPNGVTNGYSWYPLQGGMQDYNYIWAQCFEITLELSCCKYPREEKLPSFWNNNKASLIEYIKQVHLGVKGQVFDQNGNPLPNVIVEVQDRKHICPYRTNKYGEYYLLLLPGSYIINVTVPGHDPHITKVIIPEKSQNFSALKKDILLPFQGQLDSIPVSNPSCPMIPLYRNLPDHSAATKPSLFLFLVSLLHIFFK
- percentage of EdU-negative (MCF7; [1]): 25.2 ± 4.8%
- percentage of EdU-negative (MCF7; protein concentration 0.225 µM): 26.7 ± 1.4%
- percentage of EdU-negative (hTERT-HMEC; [1]): 4.44 ± 0.072%
- percentage of EdU-negative (hTERT-HMEC; protein concentration 0.225 µM): 4.97 ± 0.2%

Sequence: MDGAMGPRGLLLCMYLVSLLILQAMPALGSATGRSKSSEKRQAVDTAVDGVFIRSLKVNCKVTSRFAHYVVTSQVVNTANEAREVAFDLEIPKTAFISDFAVTADGNAFIGDIKDKVTAWKQYRKAAISGENAGLVRASGRTMEQFTIHLTVNPQSKVTFQLTYEEVLKRNHMQYEIVIKVKPKQLVHHFEIDVDIFEPQGISKLDAQASFLPKELAAQTIKKSFSGKKGHVLFRPTVSQQQSCPTCSTSLLNGHFKVTYDVSRDKICDLLVANNHFAHFFAPQNLTNMNKNVVFVIDISGSMRGQKVKQTKEALLKILGDMQPGDYFDLVLFGTRVQSWKGSLVQASEANLQAAQDFVRGFSLDEATNLNGGLLRGIEILNQVQESLPELSNHASILIMLTDGDPTEGVTDRSQILKNVRNAIRGRFPLYNLGFGHNVDFNFLEVMSMENNGRAQRIYEDHDATQQLQGFYSQVAKPLLVDVDLQYPQDAVLALTQNHHKQYYEGSEIVVAGRIADNKQSSFKADVQAHGEGQEFSITCLVDEEEMKKLLRERGHMLENHVERLWAYLTIQELLAKRMKVDREERANLSSQALQMSLDYGFVTPLTSMSIRGMADQDGLKPTIDKPSEDSPPLEMLGPRRTFVLSALQPSPTHSSSNTQRLPDRVTGVDTDPHFIIHVPQKEDTLCFNINEEPGVILSLVQDPNTGFSVNGQLIGNKARSPGQHDGTYFGRLGIANPATDFQLEVTPQNITLNPGFGGPVFSWRDQAVLRQDGVVVTINKKRNLVVSVDDGGTFEVVLHRVWKGSSVHQDFLGFYVLDSHRMSARTHGLLGQFFHPIGFEVSDIHPGSDPTKPDATMVVRNRRLTVTRGLQKDYSKDPWHGAEVSCWFIHNNGAGLIDGAYTDYIVPDIF
- percentage of EdU-negative (MCF7; [1]): 26.48 ± 0.18%
- percentage of EdU-negative (MCF7; protein concentration 0.225 µM): 26 ± 0.27%
- percentage of EdU-negative (hTERT-HMEC; [1]): 5.89 ± 0.64%
- percentage of EdU-negative (hTERT-HMEC; protein concentration 0.225 µM): 6.12 ± 0.16%

Sequence: MDGLPGRALGAACLLLLAAGWLGPEAWGSPTPPPTPAAPPPPPPPGSPGGSQDTCTSCGGFRRPEELGRVDGDFLEAVKRHILSRLQMRGRPNITHAVPKAAMVTALRKLHAGKVREDGRVEIPHLDGHASPGADGQERVSEIISFAETDGLASSRVRLYFFISNEGNQNLFVVQASLWLYLKLLPYVLEKGSRRKVRVKVYFQEQGHGDRWNMVEKRVDLKRSGWHTFPLTEAIQALFERGERRLNLDVQCDSCQELAVVPVFVDPGEESHRPFVVVQARLGDSRHRIRKRGLECDGRTNLCCRQQFFIDFRLIGWNDWIIAPTGYYGNYCEGSCPAYLAGVPGSASSFHTAVVNQYRMRGLNPGTVNSCCIPTKLSTMSMLYFDDEYNIVKRDVPNMIVEECGCA
- percentage of EdU-negative (MCF7; [2]): 24.4 ± 0.62%
- percentage of EdU-negative (MCF7; [3]): 29.05 ± 0.099%
- percentage of EdU-negative (hTERT-HMEC; [2]): 5.47 ± 0.17%
- percentage of EdU-negative (hTERT-HMEC; [3]): 8.73 ± 0.18%

Sequence: MDGWRRMPRWGLLLLLWGSCTFGLPTDTTTFKRIFLKRMPSIRESLKERGVDMARLGPEWSQPMKRLTLGNTTSSVILTNYMDTQYYGEIGIGTPPQTFKVVFDTGSSNVWVPSSKCSRLYTACVYHKLFDASDSSSYKHNGTELTLRYSTGTVSGFLSQDIITVGGITVTQMFGEVTEMPALPFMLAEFDGVVGMGFIEQAIGRVTPIFDNIISQGVLKEDVFSFYYNRDSENSQSLGGQIVLGGSDPQHYEGNFHYINLIKTGVWQIQMKGVSVGSSTLLCEDGCLALVDTGASYISGSTSSIEKLMEALGAKKRLFDYVVKCNEGPTLPDISFHLGGKEYTLTSADYVFQESYSSKKLCTLAIHAMDIPPPTGPTWALGATFIRKFYTEFDRRNNRIGFALAR
- percentage of EdU-negative (MCF7; protein concentration 0.007 µM): 27.1 ± 1.6%
- percentage of EdU-negative (MCF7; [4]): 24.9 ± 1.8%
- percentage of EdU-negative (MCF7; protein concentration 0.07 µM): 28.5 ± 1.1%
- percentage of EdU-negative (MCF7; [5]): 23.8 ± 2.5%
- percentage of EdU-negative (hTERT-HMEC; protein concentration 0.007 µM): 4.96 ± 0.18%
- percentage of EdU-negative (hTERT-HMEC; [4]): 5 ± 0.54%
- percentage of EdU-negative (hTERT-HMEC; protein concentration 0.07 µM): 6.37 ± 0.25%
- percentage of EdU-negative (hTERT-HMEC; [5]): 5.45 ± 0.35%

— the supplement of paper PMC11316812
